In US11299524B2, “KIF13B-derived peptide and method of inhibiting angiogenesis” (THE BOARD OF TRUSTEES OF THE UNIVERSITY OF ILLINOIS, priority 2016, dated 2022):
Non-standard residues stand in square brackets, D forms with d. Residues, ends and D or L forms follow the SMILES beside them. No end group written: not given here. d2Nal = N[C@H](Cc1ccc2ccccc2c1)C(=O)O; Aib = CC(C)(N)C(=O)O

Columns and labels:
VEGFR2 = VEGFR2 (Homo sapiens, UniProt P35968); assay: pull-down binding assay with endogenous VEGFR2 from HUVEC lysates; set-up: endogenous in cells; host or cells: HUVEC; conditions: HUVEC lysate, anti-VEGFR2 western blot
Description: Truncated mutants of KIF13B were expressed in BL21 (DE3) or Rosetta-gami and purified as previously described (Yamada, et al. (2014) J. Cell Sci. 127:4518-30; Yamada, et al. (2007) Biochemistry 46:10039-45).
Using recombinant proteins, the binding sites on KIF13B mediating the interaction with VEGFR2 were identified. KIF13B has a motor, forkhead-associated, membrane-associated guanylate kinase-binding stalk, 2 domains of unknown function (DUFs) (DUF3694), and a proline-rich and cytoskeleton-associated protein glycine-rich domain. The DUFs were identified from amino acid sequence similarity on the Pfam database. It has been previously shown that both domains of DUF3694 directly bind recombinant VEGFR2 in vitro (Yamada, et al. (2007) Biochemistry 46:10039-45). To define the specific peptide sequence inhibiting VEGFR2 trafficking, further analysis of the second DUF3694 domain (DUF2, residues 1112-1281 of KIF13B) was carried out. This was based on stability of this domain and a sequence distinct from binding sites for other cargoes of KIF13B (Horiguchi, et al. (2006) J. Cell Biol. 174:425-436; Hanada, et al. (2000) J. Biol. Chem. 275:28774-2878). DUF2 was divided into 3 parts, DUF2A (residues […]), DUF2B (residues 1168-1216), and DUF2C (residues 1217-1281) and each part was expressed as a recombinant protein in bacteria. VEGFR2 was abundantly expressed in HUVECs; thus, cell lysate from HUVECs was incubated with these recombinant proteins on beads, and VEGFR2 binding was determined using the anti-VEGFR2 antibody.
To identify the minimum binding site on VEGFR2, DUF2C was further truncated (DUF2C1-9) (FIG. 1). […] Stability of the C5 peptide was attributed to the 4-6 C-terminal residues. Accordingly, replacing these C-terminal residues with another a peptide, one or more post-translational modifications, one or more non-natural amino acid residues, a macromolecule such as PEG, or a combination thereof, is expected to stabilize the KAI peptide.
Initially, peptide interaction with VEGFR2 was confirmed using the pull-down assay.
To further define the KIF13B residues involved in binding to VEGFR2, truncations of the DUF2C5 peptide were tested for binding to VEGFR2 (Table 3) and compared to binding of DUF2C5 and peptides flanking this region (FIG. 1).

HUVECs [1] = assay: VEGF-induced capillary network formation on […] in vitro; type: cell-based, human; conditions: truncated mutant expressed by lentivirus in HUVECs
Method: (§1) Collagen invasion assay was performed as previously described (Kang, et al. (2011) J. Biol. Chem. 286:42017-26). In vitro capillary network formation on […] (BD Biosciences, San Jose, Calif.) and scratch wound healing assay were performed as previously described (Humtsoe, et al. (2010) Mol. Cell Biol. 30:1593-1606). Fibrin gel sprouting assay was performed as described by Nakatsu & Hughes ((2008) Methods Enzymol. 443:65-82). VEGF (2.2 nmol/L) stimulation was used for all in vitro angiogenesis assays. Transwell migration assay was performed as described by Kaplan, et al. ((2011) Free Radical Res. 45:1124-35) using VEGF (4.4 nmol/L), sphingosine-1-phosphate (S1P) (1 μmol/L), or basic fibroblast growth factor (bFGF) (50 ng/mL) in the presence or absence of kinesin-derived angiogenesis inhibitor (DUF2C5; residues 1238-1260 of KIF13B) at varying concentrations.
(§2) To test the bioactivity of the truncated mutant of KIF13B, DUF2C was expressed by lentivirus vector in HUVECs. […] The collagen invasion system (Kang, et al. (2011) J. Biol. Chem. 286:42017-42026) was used as another angiogenesis assay to test the peptides. After infection with control lentivirus, FLAG-DUF2C, or FLAG-DUF2, HUVECs were seeded on collagen gels. Cell invasion in response to proangiogenic stimuli SIP and VEGF in the gel was monitored for up to 24 hours.
Bioactivities in two-dimensional capillary network formation assay were assessed in HUVECs expressing KIF13B truncated mutants or vector controls. HUVECs were infected with lentiviruses encoding FLAG-C2, -C3, -C5, -C8, -C9, or vector.
Changes in VEGF-induced network formation assay were assessed in […] plugs. […] VEGF-induced EC sprouting was also determined by 3-dimensional culture of HUVECs on beads (Nakatsu & Hughes (2008) Methods Enzymol. 443:65-82).

[2] = cited from earlier work
[3] = test system: vWF positive endothelial cells in tumors; assay: delivery of DY633-labeled peptide to tumors in H460-tumor bearing SCID mice; type: in vivo, mouse; conditions: 10 mg/kg i.v. via tail vein, tumors dissected after 1 hour
Method: Delivery of the DUF2C5 peptide was tested using synthesized peptide covalently conjugated with DY633 fluorescent probe (Pierce). DY633-DUF2C5 (10 mg/kg body weight), DY633-CT23 or DY633 alone were injected intravenous (i.v.) via tail vein in H460-tumor bearing SCID mice. After 1 hour, tumors were dissected and flash frozen in OCT. Cryosections of tumors were co-stained with vWF to visualize endothelial cells in tumors.

HUVECs [4] = assay: collagen invasion assay; type: cell-based, human; conditions: lentiviral expression; S1P and VEGF; up to 24 hours
Method: as §1, §2

[5] = test system: vessel formation of mouse ECs; assay: […] plug vessel formation assay in mice with lentivirus; type: in vivo; conditions: lentivirus s.c. with MATRIGEL, VEGF, bFGF, heparin; C57BL mice
Method: Hematoxylin and eosin staining of […] plug was supplemented with 4.4 nmol/L VEGF, 50 ng/mL of basic fibroblast growth factor, 60 U of heparin, and 0.8×10^8 IFU lentivirus (vector control, DUF2, or DUF2C5, or CT) and injected s.c. in C57BL6 mice. Data are expressed as means±SEM. N=4, 4, 5, and 5 for vector control, DUF2, DUF2C5, and CT, respectively. *P<0.05 (one-way analysis of variance). CT, residues 1528-1826 of KIF13B.
For the […] plug assay used to assess vessel formation of mouse ECs, C57BL6 males (Jackson Laboratory) were used as previously described (Yang & Proweller (2011) J. Biol. Chem. 286:13741-53). […] supplemented with 4.4 nmol/1 VEGF, 50 ng/ml bFGF, 60 U heparin, and 0.8×10^8 IFU of lentivirus was injected subcutaneously into abdomen. Four days after injection, […] was collected.
To address the role of KIF13B in mediating angiogenesis in vivo, the […] plug assay was performed in mice using lentivirus expressing truncated mutants of KIF13B. High titer of lentivirus was injected with […] s.c. into C57BL mice in the presence of VEGF, bFGF, and heparin.

VEGFR2, sequence (P35968 20-1356): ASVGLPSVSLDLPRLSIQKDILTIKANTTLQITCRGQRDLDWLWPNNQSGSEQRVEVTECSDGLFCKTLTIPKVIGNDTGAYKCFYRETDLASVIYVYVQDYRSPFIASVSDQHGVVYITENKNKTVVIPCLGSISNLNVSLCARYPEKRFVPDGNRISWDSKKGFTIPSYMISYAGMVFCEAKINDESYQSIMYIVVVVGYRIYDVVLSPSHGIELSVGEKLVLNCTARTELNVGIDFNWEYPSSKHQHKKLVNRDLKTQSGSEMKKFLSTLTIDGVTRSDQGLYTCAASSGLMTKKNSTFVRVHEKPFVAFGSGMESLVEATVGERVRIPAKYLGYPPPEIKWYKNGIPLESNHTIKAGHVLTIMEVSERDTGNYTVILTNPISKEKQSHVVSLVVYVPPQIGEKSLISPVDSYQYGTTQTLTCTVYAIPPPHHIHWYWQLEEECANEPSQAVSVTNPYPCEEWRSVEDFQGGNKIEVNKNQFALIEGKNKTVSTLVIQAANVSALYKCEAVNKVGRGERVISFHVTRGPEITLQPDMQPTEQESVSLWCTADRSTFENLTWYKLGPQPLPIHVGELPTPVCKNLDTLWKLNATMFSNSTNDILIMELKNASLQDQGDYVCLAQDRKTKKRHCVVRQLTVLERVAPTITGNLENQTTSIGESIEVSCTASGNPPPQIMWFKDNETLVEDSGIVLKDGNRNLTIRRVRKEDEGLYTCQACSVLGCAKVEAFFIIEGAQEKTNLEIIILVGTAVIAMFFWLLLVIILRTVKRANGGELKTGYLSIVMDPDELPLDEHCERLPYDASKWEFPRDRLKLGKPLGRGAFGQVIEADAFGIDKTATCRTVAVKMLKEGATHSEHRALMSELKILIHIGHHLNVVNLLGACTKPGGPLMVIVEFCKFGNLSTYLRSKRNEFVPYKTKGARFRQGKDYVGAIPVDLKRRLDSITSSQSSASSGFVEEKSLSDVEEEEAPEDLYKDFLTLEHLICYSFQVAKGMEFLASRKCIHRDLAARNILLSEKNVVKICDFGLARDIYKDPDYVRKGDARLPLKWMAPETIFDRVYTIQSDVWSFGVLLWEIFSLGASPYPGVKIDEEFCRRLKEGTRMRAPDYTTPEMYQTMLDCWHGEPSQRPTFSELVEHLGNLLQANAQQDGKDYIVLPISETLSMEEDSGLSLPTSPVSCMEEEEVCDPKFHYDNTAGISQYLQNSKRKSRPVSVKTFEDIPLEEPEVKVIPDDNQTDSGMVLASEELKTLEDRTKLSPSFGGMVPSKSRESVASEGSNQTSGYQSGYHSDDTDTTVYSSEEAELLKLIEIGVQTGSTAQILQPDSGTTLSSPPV

Q: With “DUF2A: residues 1111-1167 of KIF13B, recombinant protein (QKLVSKRDKTEDDADREAQLLEMRLTLTEERNAVMVPSAGSGIPGAPAEWTPVPGME; left off: small tags and cut ends)” as the molecule, how does the VEGFR2 binding (VEGFR2) read?
A: failed to bind

Q: Which results are given for “PQLSRGTPVDERLFLIVR (listed as Homo sapiens) [DUF2C9, KIF13B residues 1235-1252]”?
A: VEGF-induced capillary network formation (HUVECs [1]): did not significantly reduce; VEGFR2 binding (VEGFR2): weakly bind VEGFR2; VEGFR2 binding (VEGFR2; listed as C9): partial or unstable binding

Q: For “TPVDERLFLIVRVTVQ (listed as Homo sapiens) [SEQ ID NO:3, Homo sapiens KAI peptide]”, which VEGFR2 binding (VEGFR2) is on record?
A: sufficient for VEGFR2 binding

Q: For “C2: truncated KIF13B domain, residues 1221-1260, recombinant or lentivirus-expressed (FLAG-C2) (VKAEASWDSAVHGCPQLSRGTPVDERLFLIVRVTVQLSHP; not fully specified (N-terminus); also: FLAG tag; UniProt Q9NQT8 1221-1260, looked up, fragment)”, which “VEGF-induced capillary network formation” value (HUVECs [1]) is on record?
A: significantly reduced

Q: And the VEGFR2 binding (VEGFR2)?
A: bind VEGFR2

Q: Which terminal half-life ([2]; in humans) does the source give for `CC(C)(N)C(=O)N[C@@H](Cc1c[nH]cn1)C(=O)N[C@H](Cc1ccc2ccccc2c1)C(=O)N[C@H](Cc1ccccc1)C(=O)N[C@@H](CCCCN)C(N)=O` [Ipamorelin] (H-[Aib]H[d2Nal][dF]K-NH2) here?
A: about 2 hours

Q: With `NC(=O)CC[C@@H]1NC(=O)[C@H](Cc2ccccc2)NC(=O)[C@H](Cc2ccc(O)cc2)NC(=O)[C@@H](N)CSSC[C@@H](C(=O)N2CCC[C@H]2C(=O)N[C@@H](CCCN=C(N)N)C(=O)NCC(N)=O)NC(=O)[C@H](CC(N)=O)NC1=O` [vasopressin] as the molecule, how does the half-life ([2]; in humans) read?
A: 0.167 to 0.583 h

Q: For albiglutide, which half-life ([2]; in humans) is on record?
A: 140 to 170 h

Q: Which “VEGF-induced capillary network formation” value (HUVECs [1]) does the source give for “TPVDERLFLIVRVTVQLSHPADMQLVLRKR . . . QGF (listed as Homo sapiens) [DUF2C3, KIF13B residues 1241-1281]” here?
A: significantly reduced

Q: What about the VEGFR2 binding (VEGFR2) of the same molecule?
A: bind VEGFR2

Q: For “DUF2B: residues 1168-1216 of KIF13B, recombinant protein (THIPVIFLDLNADDFSSQDNLDDPEAGGWDATLTGEEEEEFFELQIVKQ; left off: small tags and cut ends)”, which VEGFR2 binding (VEGFR2) is on record?
A: failed to bind

Q: For peginesatide, which elimination half-life ([2]; in healthy volunteers) is on record?
A: 18.9 h

Q: Which “delivery into tumor sites (DY633 label in tumor cryosections)” value [3] does the source give for `CC[N+](CCCS(=O)(=O)[O-])=c1ccc2c(C=CC=C3N(CCCCCC(=O)O)c4ccc(S(=O)(=O)[O-])cc4C3(C)C)cc(C(C)(C)C)oc-2c1.[Na+]` [DY633] here?
A: not detected

Q: For “SRGTPVDERLFLIVRVT (listed as Homo sapiens) [DUF2C6, KIF13B residues 1238-1254]”, which VEGFR2 binding (VEGFR2) is on record?
A: partial or unstable binding

Q: With “VRVTVQLSHPADMQLVLR (listed as Homo sapiens) [DUF2C8, KIF13B residues 1251-1268]” as the molecule, how does the “VEGF-induced capillary network formation” value (HUVECs [1]) read?
A: did not significantly reduce

Q: And the VEGFR2 binding (VEGFR2)?
A: weakly bind VEGFR2

Q: And the VEGFR2 binding (VEGFR2; listed as C8)?
A: partial or unstable binding

B1: DUF2: second DUF3694 domain, residues 1112-1281 of KIF13B (protein, UniProt Q9NQT8 1112-1281, looked up, fragment)
chain: KLVSKRDKTEDDADREAQLLEMRLTLTEERNAVMVPSAGSGIPGAPAEWTPVPGMETHIPVIFLDLNADDFSSQDNLDDPEAGGWDATLTGEEEEEFFELQIVKQHDGEVKAEASWDSAVHGCPQLSRGTPVDERLFLIVRVTVQLSHPADMQLVLRKRICVNVHGRQGF
Q: Which results are given for B1?
A: distance of invasion (HUVECs [4]): significantly reduced; invasion of HUVECs into collagen gel (HUVECs [4]): significantly reduced; number of lumen formed (HUVECs [4]): significantly reduced; thickness of invading sprouts (HUVECs [4]): not different among the groups; number of vessels in MATRIGEL plug [5]: significantly reduced

B2: CT: C-terminus region of KIF13B (residues 1528 to 1826), negative control (protein, UniProt Q9NQT8 1528-1826, looked up, fragment)
chain: ICDKPAKVPSPPPVIAVTAVTPAPEAQDGPPSPLSEASSGYFSHSVSTATLSDALGPGLDAAAPPGSMPTAPEAEPEAPISHPPPPTAVPAEEPPGPQQLVSPGRERPDLEAPAPGSPFRVRRVRASELRSFSRMLAGDPGCSPGAEGNAPAPGAGGQALASDSEEADEVPEWLREGEFVTVGAHKTGVVRYVGPADFQEGTWVGVELDLPSGKNDGSIGGKQYFRCNPGYGLLVRPSRVRRATGPVRRRSTGLRLGAPEARRSATLSGSATNLASLTAALAKADRSHKNPENRKSWAS
Q: Which results are given for B2?
A: VEGF-induced capillary network formation (HUVECs [1]): formed capillary networks; number of vessels in MATRIGEL plug [5]: no significant effect; VEGFR2 binding (VEGFR2): does not bind

B3: DUF2C: residues 1217-1281 of KIF13B, recombinant protein (protein)
chain: HDGEVKAEASWDSAVHGCPQLSRGTPVDERLFLIVRVTVQLSHPADMQLVLRKRICVNVHGRQGF
modifications: left off: small tags and cut ends
notes: residues 1217-1281 of KIF13B, recombinant protein
Q: What does the source list for B3?
A: distance of invasion (HUVECs [4]): significantly reduced; invasion of HUVECs into collagen gel (HUVECs [4]): significantly reduced; number of lumen formed (HUVECs [4]): significantly reduced; thickness of invading sprouts (HUVECs [4]): not different among the groups; VEGF-induced capillary network formation (HUVECs [1]): sufficient to reduce; VEGFR2 binding (VEGFR2): specifically binds
